The record followed here is patent publication US20190144550A1 (Pfizer, published 2019).

Assay [1] has as its target T1, Monomeric 8-histidine tagged human EGFRvIII extracellular domain (human, UniProt P00533 298-645).
T1 construct: Analyte in all SPR assays; not shown: 8-histidine tag
In words: SPR, captured by anti-human Fc, 25 C. The source says: (§1) Anti-EGFRvII mouse (m) antibody, m62G7, generated from hybridomas was sequenced and subcloned into suitable vectors for expression as murine-human chimeric antibodies. The CDRs of mouse antibody m62G7 were grafted onto human framework and expressed as human IgG1 recombinant antibody, h62G7. Affinity variants of h62G7 were made by introducing mutations in the CDRs of the heavy and light chains. The affinities of recombinant anti-EGFRvIII chimeric antibody m62G7 and humanized h62G7 antibodies were measured on a surface plasmon resonance Biacore™ T200 biosensor equipped with a research-grade anti-human Fc coupled CM4 sensor chip (GE Healthcare Inc., Piscataway, N.J.). Anti-EGFRvII antibodies were then captured by anti-human Fc. Monomeric 8-histidine tagged human EGFRvIII extracellular domain was then injected as the analyte at 10-fold dilution series with top concentration at 1000 nM. Affinity of anti-EGFRvIII antibodies towards human EGFRvIII was measured at both 25° C. and 37° C.

Assay [2] has as its target T2, 8-histidine tagged recombinant wild-type protein EGFRwt (UniProt P00533 25-645, limits assumed).
T2 construct: not shown: 8-histidine tag
Put plainly: SPR, captured by anti-human Fc.

Assay [3] deals with T1, Monomeric 8-histidine tagged human …. In words: SPR, captured by anti-human Fc, 37 C.
Source text: as §1

For assay [4] the target is unchanged. Put plainly: SPR, captured by anti-human Fc, 25 C. Here is the method: Human anti-EGFRvIII antibodies were sequenced and subcloned into suitable vectors for expression as recombinant human IgG1 antibodies. […] (Table 9) on a surface plasmon resonance Biacore™ T200 biosensor equipped with an anti-human Fc coupled CM4 sensor chip (GE Healthcare Inc., Piscataway, N.J.). Anti-EGFRvII antibodies were captured by anti-human Fc. Monomeric 8-histidine tagged human EGFRvIII extracellular domain was then injected as the analyte at 10-fold dilution series starting at 1000 nM.
The source holds these as a separate data set.

The target of assay [5] is T3, EGFR-mFc (human; mouse, UniProt P00533 25-645).
T3 construct: extracellular domain; Produced in HEK293 cells; also called recombinant EGFR-mFc; not shown: mouse IgG1-Fc domain
Put plainly: flow cytometry, CAR T cells stained with mFc fusion protein, Day 4. An excerpt:
(§2) To determine target binding specificity of the CARs, recombinant proteins EGFRvII-mFc and EGFR-mFc, which comprise of the extracellular domain of either human EGFRvIII or human wild-type EGFR, respectively, fused with mouse IgG1-Fc domain, were produced in HEK293 cells. […]
(Flow cytometry measures light scatter and fluorescence of single cells or particles in a stream.)

Assay [6] addresses T3, EGFR-mFc. Put plainly: flow cytometry, CAR T cells on Day 4 after transduction incubated with EGFR-mFc, then PE-labeled goat anti-mouse Fc.
Source text: as §2

B1: h62G7-EQ/L6 (antibody, V domains shown)
VH: QVQLVQSGAEVKKPGASVKVSCKASGYTFTDYTLHWVRQAPGQGLEWMGGIWPITGGTTYNQKFKGRVTMTRDTSTSTVYMELSSLRSEDTAVYYCARGEAQGSWGQGTLVTVSS
VL: DVVMTQSPLSLPVTLGQPASISCKSSQSLLYSNGKTYLNWFQQRPGQSPRRLIYQVSKLDSGVPDRFSGSGSGTDFTLKISRVEAEDVGVYYCGQDTHFPLTFGGGTKVEIK
notes: Humanized, human IgG1 recombinant antibody; also called h62G7-L6/EQ
Take B1: in assay [1], the Kd was 0.0438 µM, the koff came out at 0.01 s⁻¹ and the kon was 240000 M⁻¹ s⁻¹. For the same molecule, the binding result in assay [2] is “no binding (tested: 1000 nM)”. Also, in assay [3], the affinity, expressed as Kd, was 0.113 µM; the koff stood at 0.074 s⁻¹; the kon amounted to 660000 M⁻¹ s⁻¹.

B2: h62G7-H14/L6 (antibody, V domains shown)
VH: QVQLVQSGAEVKKPGASVKVSCKASGYTFTDYTLHWVRQAPGQGLEWMGGIWPITGGTTYNQKFKGRVTMTRDTSTSTVYMELSSLRSEDTAVYYCARGEAEGSWGQGTLVTVSS
VL: DVVMTQSPLSLPVTLGQPASISCKSSQSLLYSNGKTYLNWFQQRPGQSPRRLIYQVSKLDSGVPDRFSGSGSGTDFTLKISRVEAEDVGVYYCGQDTHFPLTFGGGTKVEIK
notes: Human IgG1
For B2, in assay [1], the Kd is 0.992 µM, the koff was found to be 0.013 s⁻¹ and the kon came to 13000 M⁻¹ s⁻¹. The binding result in assay [2] is “no binding (tested: 1000 nM)”. In assay [3], this molecule displayed a Kd of 1.58 µM, a koff of 0.068 s⁻¹ and a kon of 43000 M⁻¹ s⁻¹.

B3: h62G7-H14/L1-DV (antibody, V domains shown)
VH: QVQLVQSGAEVKKPGASVKVSCKASGYTFTDYTLHWVRQAPGQGLEWMGGIWPITGGTTYNQKFKGRVTMTRDTSTSTVYMELSSLRSEDTAVYYCARGEAEGSWGQGTLVTVSS
VL: DVVMTQSPLSLPVTLGQPASISCKSSQSLLYSNDKTYTNWFQQRPGQSPRRLIYEVSKLDVGVPDRFSGSGSGTDFTLKISRVEAEDVGVYYCGQDTHFPLTFGGGTKVEIK
notes: Humanized, human IgG1 recombinant antibody
In assay [1], B3 yielded a Kd of 1.09 µM, a koff of 0.02 s⁻¹ and a kon of 18000 M⁻¹ s⁻¹. Also, the binding result in assay [2] is listed as “no binding (tested: 1000 nM)”. In assay [3], this molecule returned a Kd of 1.54 µM, an off-rate (koff) of 0.1 s⁻¹ and a kon of 66000 M⁻¹ s⁻¹.

B4: C6 (antibody, V domains shown)
VH: QVQLVQSGAEVKKPGSSVKVSCKASGDTFSSNAISWVRQAPGQGLEWMGVIIPIFGTADYAQKFQGRVTITADESTSTAYMELSSLRSEDTAVYYCARHTYHEYAGGYYGGAMDPWGQGTLVTVSS
VL: not shown
notes: From a phage library; recombinant human IgG1
In assay [4], B4 came in with a Kd of 0.532 µM, a koff of 0.00894 s⁻¹ and a kon of 16800 M⁻¹ s⁻¹.

B5: 30D8 EGFRvIII specific CAR (other)
chain: EVQLVESGGGLVKPGGSLRLSCEASGFTFSDAWMSWVRQAPGKGLEWVGRIKSKTDGGTTDYVVPLNGRFIISRDDSRNTLYLQLNNLKTEDTAVYYCTTVPGSYGYWGQGTLVTVSSGGGGSGGGGSGGGGSGGGGSDIVMTQSPLSLPVTPGEPASISCRSSQSLLHNKRNNYLDWFLQKPGQSPQLLIYLASNRASGVPDRFSGGGSGTDFTLKISRVEAEDVGVYYCMQAQQTPITFGQGTRLEIKTTTPAPRPPTPAPTIASQPLSLRPEACRPAAGGAVHTRGLDFACDIYIWAPLAGTCGVLLLSLVITLYCKRGRKKLLYIFKQPFMRPVQTTQEEDGCSCRFPEEEEGGCELRVKFSRSADAPAYQQGQNQLYNELNLGRREEYDVLDKRRGRDPEMGGKPRRKNPQEGLYNELQKDKMAEAYSEIGMKGERRRGKGHDGLYQGLSTATKDTYDALHMQALPPR
notes: Chimeric antigen receptor on primary human T cells
On to B5, for which the binding result with EGFR-mFc [5] was “no binding”.

B6: 42G9 EGFRvIII specific CAR (other)
chain: QVTLKESGPVLLKPTETLTLTCTVSGFSLSNPRMGVSWIRQPPGKALEWFAHIFSTDEKSLKLSLRSRLTLSKDTSKSQVVLTMTNMAPVDSATYYCARDSSNYEGYFDFWGQGTLVTVSSGGGGSGGGGSGGGGSGGGGSEVVLTQSPATLSVSPGERATLSCRASQSVRSNLAWYQQKSGQAPRLLIYGSTIRATGVPARFSGSGSGTEFTLTISSLQSEDFAVYYCQQYSDWPFTFGPGTKVDIKTTTPAPRPPTPAPTIASQPLSLRPEACRPAAGGAVHTRGLDFACDIYIWAPLAGTCGVLLLSLVITLYCKRGRKKLLYIFKQPFMRPVQTTQEEDGCSCRFPEEEEGGCELRVKFSRSADAPAYQQGQNQLYNELNLGRREEYDVLDKRRGRDPEMGGKPRRKNPQEGLYNELQKDKMAEAYSEIGMKGERRRGKGHDGLYQGLSTATKDTYDALHMQALPPR
notes: as for B5
For B6, the binding result with EGFR-mFc [5] is given as “no binding”.

B7: C6 EGFRvIII specific CAR (other)
chain: QVQLVQSGAEVKKPGSSVKVSCKASGDTFSSNAISWVRQAPGQGLEWMGVIIPIFGTADYAQKFQGRVTITADESTSTAYMELSSLRSEDTAVYYCARHTYHEYAGGYYGGAMDPWGQGTLVTVSSGGGGSGGGGSGGGGSGGGGSELQSVLTQPPSASGTPGQRVTISCSGSSSNIGSNYVYWYQQLPGTAPKILIYRNNQRPSGVPDRFSGSKSGTSASLAISGLRSEDEADYYCAAWDDNLSGWVFGTGTKLTVLTTTPAPRPPTPAPTIASQPLSLRPEACRPAAGGAVHTRGLDFACDIYIWAPLAGTCGVLLLSLVITLYCKRGRKKLLYIFKQPFMRPVQTTQEEDGCSCRFPEEEEGGCELRVKFSRSADAPAYQQGQNQLYNELNLGRREEYDVLDKRRGRDPEMGGKPRRKNPQEGLYNELQKDKMAEAYSEIGMKGERRRGKGHDGLYQGLSTATKDTYDALHMQALPPR
notes: Chimeric antigen receptor on primary human T cells; also called EGFRvIII specific clone C6 CAR
With B7, the binding result in the assay with EGFR-mFc [6] is “binds”.

B8: 20E12 EGFRvIII specific CAR (other)
chain: EVNLVESGGGLVKPGGSLRLSCEASGFTFSYAWMSWVRQAPGKGLEWVGRIKSIADGGATDYAAPVRNRFTISRDDSRNTLYLEMHSLKTEDTAVYYCTTIPGNDAFDMWGQGTMVTVSSGGGGSGGGGSGGGGSGGGGSDIVLTQSPLSLSVTPGEPASISCRSSQSLLYSNGKNYLDWFLHKPGQSPQLLIYLGSNRASGVPDRFSGSGSGIDFILKISRVEAEDVGVYYCMQAQQTPITFGQGTRLEIKTTTPAPRPPTPAPTIASQPLSLRPEACRPAAGGAVHTRGLDFACDIYIWAPLAGTCGVLLLSLVITLYCKRGRKKLLYIFKQPFMRPVQTTQEEDGCSCRFPEEEEGGCELRVKFSRSADAPAYQQGQNQLYNELNLGRREEYDVLDKRRGRDPEMGGKPRRKNPQEGLYNELQKDKMAEAYSEIGMKGERRRGKGHDGLYQGLSTATKDTYDALHMQALPPR
notes: as for B5
B8: the binding result with EGFR-mFc [5] is on record as “no binding”.

B9: B5 (antibody, V domains shown)
VH: EVQLLESGGGLVQPGGSLRLSCAASGFTFSNYAMSWVRQAPGKGLEWVSDISGGGGRTYYADSVKGRFTISRDNSKNTLYLQMNSLRAEDTAVYYCARAGLLYGGGVYPMDIWGQGTLVTVSS
VL: not shown
notes: as for B4
Take B9: in assay [4], binding was characterised by a dissociation constant (Kd) of 0.678 µM, the koff was 0.0141 s⁻¹ and the kon was 20800 M⁻¹ s⁻¹.

B10: 26B9 EGFRvIII specific CAR (other)
chain: EVQLVESWGVLVKPGGSLRLSCAASGFIFNNAWMSWVRQAPGKGLEWIGRIKSKSDGGTTDYAAPVKDRFTISRDDSKDTLYLQMNGLKTEDTAVYFCTTAPGGPFDYWGQGTLVTVSSGGGGSGGGGSGGGGSGGGGSDIVLTQSPLSLPVTPGEPASISCRSSQSLLHRDGFNYLDWFLQKPGQSPQLLIYLASSRASGVPDRFSGSDSGTDFTLKISRVEAEDVGVYYCMQALQTPITFGQGTRLEIKTTTPAPRPPTPAPTIASQPLSLRPEACRPAAGGAVHTRGLDFACDIYIWAPLAGTCGVLLLSLVITLYCKRGRKKLLYIFKQPFMRPVQTTQEEDGCSCRFPEEEEGGCELRVKFSRSADAPAYQQGQNQLYNELNLGRREEYDVLDKRRGRDPEMGGKPRRKNPQEGLYNELQKDKMAEAYSEIGMKGERRRGKGHDGLYQGLSTATKDTYDALHMQALPPR
notes: as for B5
As to B10, the binding result in the assay with EGFR-mFc [5] is “no binding”.

B11: m62G7 (antibody, V domains shown)
VH: EVQLQQSGPELVKPGASVKISCKTSGYTFTDYTLHWVKQSHVKSLEWIGGIDPINGGTTYNQKFKGKATLTVDKSSSTAYMELRSLTSEDSAVYYCARGEAMDSWGQGTSVTVSS
VL: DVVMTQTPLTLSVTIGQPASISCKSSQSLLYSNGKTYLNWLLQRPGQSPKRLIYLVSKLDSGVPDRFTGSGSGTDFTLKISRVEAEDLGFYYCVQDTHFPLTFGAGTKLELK
notes: Tested as murine-human chimeric antibody, captured by anti-human Fc; also called recombinant anti-EGFRvIII chimeric antibody m62G7
In assay [1], B11 registered a Kd of 0.0887 µM, a koff of 0.064 s⁻¹ and a kon of 730000 M⁻¹ s⁻¹. The binding result in assay [2] is recorded as “no binding (tested: 1000 nM)”. In assay [3], this molecule came in with a Kd of 0.207 µM, a koff of 0.17 s⁻¹ and a kon of 800000 M⁻¹ s⁻¹.

As a reminder, the Kd is the constant that tells how readily two partners part at equilibrium. Broadly, the koff is the first-order rate constant of dissociation. A higher koff goes with fast dissociation. In general, kon refers to the second-order rate constant of association. A high value points to fast association.
